Data from PMC1450317.

Target: T1, TSLP receptor (TSLPR) (mouse (endogenous in mouse thymocytes)) (UniProt Q8CII9)
T1 sequence: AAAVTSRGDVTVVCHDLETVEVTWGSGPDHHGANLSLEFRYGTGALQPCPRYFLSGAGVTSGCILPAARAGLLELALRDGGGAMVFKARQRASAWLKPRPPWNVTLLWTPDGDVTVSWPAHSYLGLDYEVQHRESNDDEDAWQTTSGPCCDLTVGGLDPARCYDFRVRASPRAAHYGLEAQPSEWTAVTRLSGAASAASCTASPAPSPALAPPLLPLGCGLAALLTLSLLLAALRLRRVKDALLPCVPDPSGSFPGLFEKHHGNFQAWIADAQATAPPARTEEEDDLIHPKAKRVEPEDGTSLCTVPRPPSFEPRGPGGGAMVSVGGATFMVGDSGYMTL

FoxP3 mRNA (real-time PCR, FoxP3/18S) in purified CD4+CD8-CD25+ adult thymocytes cultured with TSLP for two days: 2 fold
FoxP3 mRNA (real-time PCR, FoxP3/18S) in purified CD4+CD8-CD25- adult thymocytes cultured with TSLP for two days: 10 fold
B1: thymic stromal derived lymphopoietin (TSLP), recombinant mouse (ligand)
chain: YNFSNCNFTSITKIYCNIIFHDLTGDLKGAKFEQIEDCESKPACLLKIEYYTLNPIPGCPSLPDKTFARRTREALNDHCPGYPETERNDGTQEMAQEVQNICLNQTSQILRLWYSFMQSPE
